Assay results as given in paper PMC6139572, “Structural and functional effects of myosin-binding protein-C phosphorylation in heart muscle are not mimicked by serine-to-aspartate substitutions” (The Journal of Biological Chemistry, 2018).
Blank lines part the entries; values can stand above or below the binder they belong to.

Legend:
Conditions in all cases: both partners purified
[1] = target: isolated native thin filaments (UniProt P68032 1-377); assay: co-sedimentation; high-velocity co-sedimentation of C1mC2 constructs with isolated native thin filaments; performed as described in ref. 15
[2] = target: T1, myosin S2Δ, the first 126 amino acids of myosin sub-fragment 2 (rat heart) (rat, Alexa 647 (labelled with Alexa 647–NHS, efficiency of ~80%)); assay: MST; as a2 (pH 7, 50 mmol/liter KCl); 30 °C
T1 construct: cardiac myosin heavy chain cloned from a rat heart cDNA library; the first 126 amino acids of myosin S2; also called Alexa 647–myosin S2Δ; source: E. coli BL21(DE3)-RIPL, purified (HisTrapFF, TEV, Mono Q); not shown: His6, N-terminal, cleaved

[3] = target: T1, myosin S2Δ, the first 126 amino acids …; assay: MST; isolated m-motif titrated against 100 nmol/liter Alexa 647–myosin S2Δ; MST buffer adjusted to pH 6.2, enhanced gradient standard capillaries; 50 mmol/liter KCl; 30 °C

Kd [1]: 16 µM
B1: C1mC2 of rat cardiac myosin-binding protein-C with three phosphorylatable serines mutated to aspartate (domain or fragment)
chain: PIGLFLMRPQDGEVTVGGSIVFSARVAGASLLKPPVVKWFKGKWVDLSSKVGQHLQLHDSYDRASKVYLFELHITDAQATSAGGYRCEVSTKDKFDSCNFNLTVHEAIGSGDLDLRSAFRRTDLAGTGRRTDDSHEDAGTLDFSSLLKKSDFRRDSKLEAPAEEDVWEILRQAPPSEYERIAFQHGVTDLRGMLKRLKGMKHDEKKSTAFQKKLEPAYQVNKGHKIRLTVELADPDAEVKWLKNGQEIQMSGRYIFESIGAKRTLTISQCSLADDAAYQCVVGGEKCSTELFVKEP

Kd [2]: 477 µM
B2: C1–C2, construct containing Ig domains C1 and C2 of rat cardiac myosin-binding protein-C connected by a flexible linker, with the m-motif deleted (domain or fragment)
chain: PIGLFLMRPQDGEVTVGGSIVFSARVAGASLLKPPVVKWFKGKWVDLSSKVGQHLQLHDSYDRASKVYLFELHITDAQATSAGGYRCEVSTKDKFDSCNFNLTKKSTAFQKKLEPAYQVNKGHKIRLTVELADPDAEVKWLKNGQEIQMSGRYIFESIGAKRTLTISQCSLADDAAYQCVVGGEKCSTELFVKEP

Kd [3]: 41.1 µM
B3: isolated m-motif of rat cardiac myosin-binding protein-C (domain or fragment)
chain: VHEAIGSGDLDLRSAFRRTSLAGTGRRTSDSHEDAGTLDFSSLLKKSSFRRDSKLEAPAEEDVWEILRQAPPSEYERIAFQHGVTDLRGMLKRLKGMKHDE
